Laboratory results reported in publication PMC6805918, “Extracellular pyridine nucleotides trigger plant systemic immunity through a lectin receptor kinase/BAK1 complex” (Nature Communications, 2019).

Target: T1, GST-BAK1KD (cytoplasmic kinase domain of BAK1, AAs 250-615, fused to GST) (Arabidopsis thaliana, UniProt Q94F62 250-615)
T1 construct: BRASSINOSTEROID …1-ASSOCIATED KINASE1 (BAK1), Arabidopsis thaliana, cytoplasmic kinase domain, amino acids 250-615; Cloned into the EcoRI/SalI site of pGEX-4T-1; source: E. coli BL21(DE3), purified; not shown: GST, N-terminal, kept
T1 sequence (looked up): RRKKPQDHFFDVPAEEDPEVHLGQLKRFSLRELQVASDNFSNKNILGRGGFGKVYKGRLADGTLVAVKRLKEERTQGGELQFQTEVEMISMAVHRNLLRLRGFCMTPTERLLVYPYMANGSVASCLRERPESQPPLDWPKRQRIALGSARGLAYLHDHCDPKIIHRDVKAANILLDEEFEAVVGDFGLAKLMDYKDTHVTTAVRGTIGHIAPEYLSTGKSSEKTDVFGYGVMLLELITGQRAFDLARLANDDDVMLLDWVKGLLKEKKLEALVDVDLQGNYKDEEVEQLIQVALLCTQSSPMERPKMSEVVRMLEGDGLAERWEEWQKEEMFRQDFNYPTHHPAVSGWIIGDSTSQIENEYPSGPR
Experiment: pull-down; 1 μg MBP or MBP-LecRK-VI.2KD incubated with 1 μg GST-BAK1KD in 20 mM Tris-HCl, 200 mM NaCl, 1 mM EDTA, pH 7.4, 4 °C; pulled down with amylose resin beads; washes with 0.6% Triton X-100; immunoblot with anti-MBP and anti-GST
Conditions: both partners purified

B1: MBP-LecRK-VI.2KD (cytoplasmic kinase domain of LecRK-VI.2, AAs 331-682, fused to maltose-binding protein) (domain or fragment, Arabidopsis thaliana, UniProt Q9M021 331-682, looked up)
chain: FVMYKKRLGQEETLEDWEIDHPRRLRYRDLYVATDGFKKTGIIGTGGFGTVFKGKLPNSDPIAVKKIIPSSRQGVREFVAEIESLGKLRHKNLVNLQGWCKHKNDLLLIYDYIPNGSLDSLLYTVPRRSGAVLSWNARFQIAKGIASGLLYLHEEWEKIVIHRDVKPSNVLIDSKMNPRLGDFGLARLYERGTLSETTALVGTIGYMAPELSRNGNPSSASDVFAFGVLLLEIVCGRKPTDSGTFFLVDWVMELHANGEILSAIDPRLGSGYDGGEARLALAVGLLCCHQKPASRPSMRIVLRYLNGEENVPEIDDEWGYSKSSRSEFGSKLVGYVSSTSITRVSSTSRISQ
notes: lectin receptor kinase LecRK-VI.2, Arabidopsis thaliana, gene At5g01540, cytoplasmic kinase domain, amino acids 331-682; Cloned into the BamHI/SalI site of pMAL-p2X; source: E. coli BL21(DE3), purified; not shown: MBP, N-terminal, kept
binding result: binds
